Reference: the RNAGym collection of RNA variant scans (doi:10.7554/elife.90254)

B1: OR4K15 (parent)
chain: GUUAACGGUCAUAGGCCAUGGAAACUAGGAGCACCAUUUCGCUGCCAGUGAAGAAAUGAACAAAGAAAAUCUGGGCCAGGCAGGCAUCAAAAGAAAUAGUCUUGCGCUCAACCAGAAAGUCUGUAAUCAUUUUAAGGGUA

Variants of: B1
Test: self-cleavage, relative activity (ratio to wild type); higher = more cleavage; in vitro, sequencing; the parent is a self-cleaving ribozyme

Variant | self-cleavage
A134U A135U | 1.42
U38A A59G | 1.14
A59U A63G | 1.22
G14C A118G | 0.43
G29A U122C | 1.08
U37C A82U | 0.13
A13G A140C | 1.31
A13C U132C | 1.06
G14C U132C | 1.04
A90U A111G | 0.02
G106A A125U | 0.05
A47U A110G | 0.05
G53A A86G | 1.83
G31A U39C | 1.68
A51U G104A | 0.01
A63C A126G | 0.99
A18U U37C | 0.8
A24U A126G | 1.15
A95G U103C | 1.25
A91U U127C | 0.87
A13G A51U | 0.66
A23G U97G | 1.16
A33U A91G | 0.6
U100A C113U | 0.11

Variant | self-cleavage
A60G A135G | 1.71
C32U A64G | 1.66
C6A C61U | 0.76
A56G C76U | 0.14
A11U A94G | 0.71
A63G A118C | 1.42
U49C U133A | 1.29
U9C U70A | 0.97
C34A U43A | 1.8
A67G A95G | 2.37
C45G A90G | 1.2
C45U A68G | 1.96
A51U G93A | 1.71
A30G A125G | 0.87
U9C U72C | 0.2
U38C C105U | 0.19
U12A A91G | 1.57
C81A A126G | 0.17
A59C U127C | 1.18
A36G U124C | 0.45
U26C U127C | 0.85
A22G A117U | 0.49
A86G U102A | 1.36
U26A A110G | 0.22

Variant | self-cleavage
G53A A78G | 0.22
U49C U127C | 0.94
G20A U38C | 1.72
U38A A90G | 1.18
U103A U133C | 0.61
G1A A62C | 2.59
A59G A64U | 0.74
A27G G44A | 1.52
A92G U103C | 0.6
U26A U139A | 1.05
C121A U127C | 0.2
A18U U38C | 1.28
A22U G74U | 0.27
A59G U102A | 0.81
C25U A118G | 0.68
U37C A59G | 1.72
U87C G115U | 0.29
A11U C16U | 2.22
C77U A129G | 1.77
U87A A96G | 2.29
U127C A135U | 0.65
A18G U26A | 1.1
A52G U120C | 1.16
U103A U131G | 0.22

Variant | self-cleavage
U87G U127C | 0.22
G15C A51U | 1.07
A63U | 0.82
A30U A66U | 0.65
A30G A110U | 1.1
A51C A62G | 0.72
A67G U130C | 1.25
U49C U70C | 0.59
C10U | 0.84
U102C C107U | 0.01
G7A A55G | 1.39
A62C A116G | 0.78
A59G U100C | 2.06
A60U A86G | 0.74
A78G U103G | 0
C17U A24U | 1.29
A36G A63G | 1.32
A22U A140G | 1.41
G84C | 0.29
U100C A110G | 0.32
A27G A67U | 2.19
A89G U103G | 0.02
A11U A68G | 0.99
A86U A96G | 1.68

Variant | self-cleavage
U102A U130C | 0.43
G75A U108A | 0.01
U49C U122C | 0.52
U2G U102C | 0.94
G75A A114U | 0.02
G14U A116G | 0.63
U38G C107U | 0.02
A55U A56G | 1.38
U103C A118U | 0.3
A36G C85U | 0.98
C25A | 0.92
A47U A114G | 0.21
A89G A114U | 0.12
G31A U70A | 1.73
A5G A134U | 1.24
A23G U57C | 1.04
U2C C76A | 0.1
A51G U100G | 1.63
G8A A23G | 1.58
A63G U102A | 1.39
A82U A126G | 0.1
U108C A126U | 0.01
A18G U122C | 1.32
A22G U103C | 0.98

Variant | self-cleavage
A54G A140U | 1.25
U2A A51U | 0.86
A89U A125G | 0.77
A64U U102A | 1.07
U2A | 0.8
A5G G44A | 0.86
A126G A140U | 1.58
U43C A82U | 0.18
A22G A92G | 1.08
A94U A111G | 0.02
A96G C113G | 0.02
C46A A78G | 0.17
U97C A117G | 2.06
A66U A69G | 1.06
A111G U124A | 0.02
A22G U49A | 0.65
C85U A125U | 1.35
U9A A30U | 1.22
C71U A114G | 0.05
A55G A78G | 0.23
A27G A92C | 1.36
G65U A111G | 0.06
A86G U127A | 1.76
C35U A60G | 0.76

Variant | self-cleavage
G41A U87C | 0.63
A33G A51U | 0.82
C6U A118G | 1.06
U70C U102C | 1.57
A67G A129C | 1.2
U57C C105G | 0.01
A92G U97C | 1.57
A67G U122A | 0.99
G28C U130C | 0.64
A5G G99A | 0.66
G93A A126G | 2.16
A23G A33C | 1.52
A67G A117U | 0.32
U2C U57C | 0.75
G44A A68G | 1.81
A47U U130C | 0.43
A54G U103C | 0.91
U38C C88U | 2.51
U49A U124A | 0.56
C107A A111G | 0.02
A67U A118G | 1.4
C45U U127C | 0.56
A11G U70G | 0.6
